In US6897294:

Biological target: flt(1,2,3): flt-1 Ig-like domains 1, 2 and 3 only fused to the Fc of IgG (human) [IgG part: P01857]
Assay: unlabeled VEGF titrated against 125I-VEGF165 binding to 1 ng immunoreactive flt(1, 2, 3) on anti-Fc plates; 4-parameter fit (FIG. 5)

Sequence of vascular endothelial growth factor VEGF165 (P15692 other isoform, or with tags, fused parts or gaps limits assumed): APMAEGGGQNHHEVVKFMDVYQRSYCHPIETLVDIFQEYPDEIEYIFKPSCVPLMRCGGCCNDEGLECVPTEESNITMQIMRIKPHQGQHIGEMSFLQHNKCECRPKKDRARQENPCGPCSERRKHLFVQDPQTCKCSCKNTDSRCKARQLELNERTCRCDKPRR

IC50: 1.34 ng/mL
Substance: vascular endothelial growth factor VEGF165 (from UniProt P15692 27-191) (ligand)
